Consider 30 sequences from the nanobody polyreactivity screen of Harvey et al. (2022).

A short description of the series: yeast display, Sf9 membrane polyspecificity reagent, FACS + sequencing; frameworks hold sequencing errors. The essentials: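 In a synthetic yeast display library (Saccharomyces cerevisiae BJ5465), nanobody expression was induced with galactose for 36–48 hours. FACS gates were set low and high (top ~1%) using anti-HA fluorescence for expression and streptavidin fluorescence for binding of the Sf9 membrane reagent. Each polyreactivity label is drawn from the gate of origin.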
For “QVQLVESGGGLVQAGGSLRLSCAASGLTFGGYAMGWYRQAPGKERELVAAISRSGTSTYYADSVKGRFTISRDNAKNTVYLQMNSLKPEDTAVYYCAKELYSWLQGYRGEGTMDYWGQGTQVTVSS”, the “polyreactivity (PSR sort gate)” value is listed as “high polyreactivity”.

Turning to “QVQLVESGGGLVQAGGSLRLSCAASGLTFGIYDMGWYRQAPGKERELVAGIRWSGGDSTYYADSVKGRFTNSRDNAKNTVYLQMNSLKPEDTAVYYCAARLYRWGGGLSRDKHGYWGQGTQVTVSS”, the “polyreactivity (PSR sort gate)” value is given as “low polyreactivity”.

For “QVQLVESGGGLVQAGGSLRLSCAASGLTFGNYAMGWDRQAPGKERELVAAISWGGGITYYADSVKGRFTISRDIAKNTVYLQMNSLKPEDTAVYYCAADVYFNSTPDYLYDYWGQGTQVTVSS”, the “polyreactivity (PSR sort gate)” value is “low polyreactivity”.

Take “QVQLVESGGGLVQAGGSLRLSCAASGLTFGPYAMGWYRQAPGKERELVAAITSGGRTYYADSVKGRFTISRDNAKNTVYLKMNSLKPEDTAVYYCAADPLSGYDYWGQGTQVTVSS”: the “polyreactivity (PSR sort gate)” value is “low polyreactivity”.

As to “QVQLVESGGGLVQAGGSLRLSCAASGLTFGSKAMGWYRQAPGKERELLAAISWNGGSTSYADSVKGRFTISRDNAKHTVYLQMNSLKPEDTAVNYCAADYFDSSYQPTDSILYEYWGQGTQVTVSS”, the “polyreactivity (PSR sort gate)” value is recorded as “low polyreactivity”.

Consider “QVQLVESGGGLVQAGGSLRLSCAASGLTFGWNAMGWYRQAPGKERESVAAISYNGVSTHYADSVKGRFTISRDNAKNTVYLQMNSLKPEDTAVYYCAARALTWPYGGTAPRLYNYWGQGTQVTVSS”, for which the “polyreactivity (PSR sort gate)” value is “low polyreactivity”.

As to “QVQLVESGGGLVQAGGSLRLSCAASGLTFGYYAMGWYRQAPGKERELVAAISSSGGRTYYADSVKGRFTISRDNAKNTVYLQMNSLKPEDSAVYYCAKSRYATQTDYNYWGQGTQVTVSS”, the “polyreactivity (PSR sort gate)” value is on record as “high polyreactivity”.

As to “QVQLVESGGGLVQAGGSLRLSCAASGLTFGYYAMGWYRQAPGKERELVAVISGGGGTHYADSVKGRFTISRDNAKNTVYLQMNSLKPEDTAVYYCAAYTYRRYDYWGQGTQVTVSS”, the “polyreactivity (PSR sort gate)” value is “high polyreactivity”.

Consider “QVQLVESGGGLVQAGGSLRLSCAASGLTFHRYAMGWYRQAPGKERELVAAINYSGGRTYYADSVKGRFTISRDNAKNTVYLQMNSLKPEDTAVYYCAASLYRRQMDHWGQGTQVTVSS”, for which the “polyreactivity (PSR sort gate)” value was “high polyreactivity”.

Consider “QVQLVESGGGLVQAGGSLRLSCAASGLTFHYYDMGWYRQAPGKERELVAAISTGGGTYYADSVKGRFTISRDNAKNTVYLQMNSLKPEDTAVYYCAAETQHSYFVFSYYWGQGTQVTVSS”, for which the “polyreactivity (PSR sort gate)” value was “high polyreactivity”.

For “QVQLVESGGGLVQAGGSLRLSCAASGLTFIKYAMGWYRQAPGKEREFVADISKRGGTTYYADSVKGRFTISRDTEKNTVYLQMNSLKPEDTAVYYCAARQYLNVYYRYDYWGQGTQVTVSS”, the “polyreactivity (PSR sort gate)” value is reported as “high polyreactivity”.

On to “QVQLVESGGGLVQAGGSLRLSCAASGLTFKKYAMGWYRPAPGKERELVAAISSGSTTYYADSVKGRFTISRDNAKNTVYLQMNSLKPEDTAFYYCAARRKGTVASMGYWGQGTQVTVSS”, for which the “polyreactivity (PSR sort gate)” value is listed as “high polyreactivity”.

Regarding “QVQLVESGGGLVQAGGSLRLSCAASGLTFKRNAMGWYRQAPGKERELVAAIRYSTDSTNYADSVKGRFTISRDNAMYTVYLQMNSLKPEDTAVYYCAKDKQDYEYWGQGTQVTVSS”, the “polyreactivity (PSR sort gate)” value is listed as “low polyreactivity”.

As for “QVQLVESGGGLVQAGGSLRLSCAASGLTFKRYAMGWYRQAPGKERELVASITGNGGSTYYADSVKGRFTISRDNAKNTVYLQMNSLKPEDTAVYYCNARRYVRTSQQPLYDYWGQGTQVTVSS”, the “polyreactivity (PSR sort gate)” value was “high polyreactivity”.

As to “QVQLVESGGGLVQAGGSLRLSCAASGLTFKSYAMGWNRQAPGKERELVAVISSSGGRTYYADSVKGRFTISRDNAKNTVYLQMNSLKPEDTAVYYCAADGSYGKWGGHAMYYLGQGTQVTVSS”, the “polyreactivity (PSR sort gate)” value is reported as “high polyreactivity”.

As to “QVQLVESGGGLVQAGGSLRLSCAASGLTFKVNAMGWYRQAPGRGRELVAAISVSGGSTYYADSVKGRFTISRDNAKNTVYLQMNSLKPEDTAVYYCNADFYYRYYGAYDYWGQGTQVTVSS”, the “polyreactivity (PSR sort gate)” value is reported as “high polyreactivity”.

For the sequence “QVQLVESGGGLVQAGGSLRLSCAASGLTFKVYDMGWYRKAPGKERELVAAIWSDGDTYYADSVKGRFTISRDNAKNTVYLQMNSLKPEDTGVYYCAAVPGCTVHFVYGNKYDYWGQGTQVTVSS”, the “polyreactivity (PSR sort gate)” value is recorded as “low polyreactivity”.

Consider “QVQLVESGGGLVQAGGSLRLSCAASGLTFKYYTMGWYRQAPGKERELVADISRTGRTSYADSVKGRFTISRDNAKNTVYLQMNSLKPEDTAVYYCNALAGIAQRRTGYYNPGDYWGQGTQVTVSS”, for which the “polyreactivity (PSR sort gate)” value is given as “high polyreactivity”.

In the case of “QVQLVESGGGLVQAGGSLRLSCAASGLTFLDYDMGWYRQAPGKERELVADIDWSGGNTYYADSVKGRFTISRDNAKNTVYLQMNSLKPEDTAVYYCNTVTEAVTRRYDYWGQGTQVTVSS”, the “polyreactivity (PSR sort gate)” value is listed as “low polyreactivity”.

For “QVQLVESGGGLVQAGGSLRLSCAASGLTFLKYAMGWYRQAPGKERELVAAITGSGGRTYYADSVKGRFTISRDNSKNTVYLHMNSLKPEDTAVYYCAADDYFHDDYWGLGTQVTVSS”, the “polyreactivity (PSR sort gate)” value is given as “high polyreactivity”.

On to “QVQLVESGGGLVQAGGSLRLSCAASGLTFLLNAMGWYRQAPGKERELVAAITWRGGRTYYADSVKGRFTISRDNAKNTVYLQMNSLKPEDTAVYYCAAVPVVQSQPTYYYWGQGTQVTVSS”, for which the “polyreactivity (PSR sort gate)” value is given as “high polyreactivity”.

“QVQLVESGGGLVQAGGSLRLSCAASGLTFLYNAMGWYRRATGKERELVASITNGGSTNYADSVKGRFTISRDNEKNTVYLQMNSLKPEDTAVYYCAKAAVDVGQRTPWEYDYWGQGTQVTVSS”: the “polyreactivity (PSR sort gate)” value was “low polyreactivity”.

On to “QVQLVESGGGLVQAGGSLRLSCAASGLTFLYYAMGWYRQAPGKERELVAAISRSGGSTYYADSVKGRFTISRDNAKNTVYLQMNSLKPEDTAVYYCAAGRRGGKQGGTRGGDYWGQGTQVTVSS”, for which the “polyreactivity (PSR sort gate)” value is “high polyreactivity”.

Consider “QVQLVESGGGLVQAGGSLRLSCAASGLTFLYYSMGWYRQAPGKERELVAAISTRGGSTYYADSVKGRFTISRDNAKNTVYLQMNSLKPEDTAVYYCNAKLIVTPGRGDYWGQGTQVSVSS”, for which the “polyreactivity (PSR sort gate)” value is given as “high polyreactivity”.

Regarding “QVQLVESGGGLVQAGGSLRLSCAASGLTFNFYAMGWYRQAPGKEREFVAAISRSGGSTHYADSVKGRFTISRDNAKYTVYLQMNSLKPEDTAVYYCAADGGRKNYDYWGQGTQVTVSS”, the “polyreactivity (PSR sort gate)” value is given as “high polyreactivity”.

Regarding “QVQLVESGGGLVQAGGSLRLSCAASGLTFNKYAMGWYRQGPGKERELVAAISYRGGSTYYADSVKGRFTISRDNAKNTVYLQMNSLKPEDTAVYYCAVRYWALDDQYRYGSWGQGTQVTVSS”, the “polyreactivity (PSR sort gate)” value is “high polyreactivity”.

In the case of “QVQLVESGGGLVQAGGSLRLSCAASGLTFPENAMGWYRQAPGKEREMVASISDSDGITFYADSVKGSFTISRDNAKNTVYLQMNSLKPEDTAVYYCAADVAIAIPFSYDYWGQGSQVTVSS”, the “polyreactivity (PSR sort gate)” value was “low polyreactivity”.

Consider “QVQLVESGGGLVQAGGSLRLSCAASGLTFPIYAMGWYRQAPGKEREYVAVITTSGGSTYYADSVKGRFTISRDNAKNTVYLQMNSLKPEDTAVYYCNARGIRHYYWGQGTQVTVSS”, for which the “polyreactivity (PSR sort gate)” value is given as “high polyreactivity”.

For the sequence “QVQLVESGGGLVQAGGSLRLSCAASGLTFPSYAMGWYRQAPGKERELVAAISSGDSTNYADSVKGRFTISRDNAKNTVYLQMNSLKPEDTAVYYCAVGLPHGGRRLYGSWYRFDYWGQGTQVTVSS”, the “polyreactivity (PSR sort gate)” value is “low polyreactivity”.

For “QVQLVESGGGLVQAGGSLRLSCAASGLTFPSYAMGWYRQAPGKVSELVAAISARGGGTYYADSVKGRFTISRDNAKNTVYLQMNSLKPEDTAVYYCAADPVYAGPGYDYWGQGTQVTVSS”, the “polyreactivity (PSR sort gate)” value is “high polyreactivity”.
